US20240033374A1, “Nano-structural Protein Degradation Tool, Use, and Preparation Method thereof, and Lipid-based Protein Degradation Tool, Use, and Preparation Method thereof” (HENAN UNIVERSITY, priority 2022, published 2024)
Values belong to the molecule of their own block, whether it stands above or below them.

What was measured:
EGFR [1] = target: T1, EGFR (Homo sapiens, UniProt P00533); test: EGFR protein degradation in cells, protein electrophoresis (Western blot); type: cell-based
T1 construct: can degrade the membrane receptor protein EGFR in various tumor cells; endogenous in cells; host or cells: MDA-MB-231 (M231), HeLa, U87
Experimental: In the above, the NP group refers to nanoparticles not linked with the POI recognition groups in the example. In all the examples involving multi-concentration test, the control group for POI recognition group and the control group for lipid hybrid substance were treated with the molar concentration equal to the highest concentration in concentration test group. All the protein electropherograms take GAPDH or VIN (vinculin) as internal reference.

β-amyloid 1-42 oligomer = target: T2, β-amyloid 1-42 oligomer (Homo sapiens, UniProt P05067); test: Endocytosis of FITC-labeled β-amyloid 1-42 oligomer in human glial cells, confocal microscope; type: cell-based; conditions: 10 μM, 12 hours
T2 construct: oligomers prepared from FITC green dye-labeled β-amyloid 1-42 polypeptide; host or cells: exogenous peptide added to human glial cells
T2 sequence (P05067 672-713 limits assumed): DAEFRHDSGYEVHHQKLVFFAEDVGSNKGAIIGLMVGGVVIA
Experimental: 1 μM FITC fluorescein-labeled 5 μM β-amyloid oligomer and AB-NP were co-cultured in human glial cells for 4 hours, subsequently extracellular solution was washed away with PBS. […] The lysosome theoretically can degrade β-amyloid so as to eliminate toxicity brought about by β-amyloid extracellular accumulation. (3) β-amyloid hijack experiment: 10 μM oligomers prepared from FITC green dye-labeled 3-amyloid 1-42 peptide and 10 μM AV45-NP were co-incubated, then, the treated residue not entering the cell was washed off with PBS, followed by confocal microscope imaging, to detect green fluorescence of the β-amyloid 1-42 oligomers. […] The lysosomal dye lysoTracker was used to label the lysosome. […] 10 μM AV-45 or AV45-NP and 10 μM FITC green fluorescence dye-labeled β-amyloid oligomers were co-incubated in culture medium and treated human glial cells for 12 hours.

HepG2 cells = test: CCK8 cell viability assay; type: cell-based, human; conditions: 500 nM antibody, 24 h, p<0.001
human glioma in situ = test: In situ glioma model, immunohistochemical detection of EGFR and PCNA; type: in vivo, nude mice; conditions: 10 mg/kg intravenous, every other day, 5 times
Experimental: The administration was performed once every other day, 5 times in total, and after the administration cycle was completed, the mice were euthanized the next day, the brain tissues were taken and paraffin-embedded, and sectioned for immunohistochemical staining to study the protein degradation effect of NTZ on target protein EGFR and the tumor inhibition by detecting the tumor proliferation marker PCNA.

EGFP-labeled fused EGFR = target: T3, EGFP-labeled fused EGFR (Homo sapiens, UniProt P00533); test: Live-cell confocal imaging of EGFP-fused EGFR in M231 cells; type: cell-based; conditions: M231 living cells, fixed visual field, photographed continuously
T3 construct: expressed in transfected cells; host or cells: MDA-MB-231 (M231)

[2] = Dynamic light scattering particle size and PDI; type: physicochemical
Description: FIG. 68 is a structural schematic diagram of CTX-RBCmD. FIG. 69 is a diagram of DLS particle size distribution results.

[3] = Acute toxicity, blood parameters of liver and kidney function after a single administration; type: in vivo, mice; conditions: 10 mg/kg via tail vein, blood 12 hours after injection
Experimental: In the present example, acute hepatotoxicity on mice by the NTZ-NP nano-structural protein degradation tool was studied. The nanoparticles, the solvent PBS control, NTZ antibodies of equal molar quantity, and NP of equal molar quantity without NTZ antibodies (10 mg/kg) were injected into mice via tail vein, blood was taken 12 hours after injection, and blood biochemical indicators were detected by a kit.

EGFR [4] = target: T1, EGFR; test: EGFR on cell surfaces, immunofluorescent staining and confocal microscopy, M231 cells; type: cell-based; conditions: 500 nM antibodies, 24 hours
PD-1 receptor protein = target: T4, PD-1 receptor protein (Homo sapiens, UniProt Q15116); test: PD-1 expression in JURKAT cells overexpressing PD-1, protein electrophoresis; type: cell-based; conditions: JURKAT cells overexpressing PD-1, 500 nM, 24 h
T4 construct: expressed in transfected cells; host or cells: JURKAT cells overexpressing PD-1
T4 sequence (Q15116 25-288): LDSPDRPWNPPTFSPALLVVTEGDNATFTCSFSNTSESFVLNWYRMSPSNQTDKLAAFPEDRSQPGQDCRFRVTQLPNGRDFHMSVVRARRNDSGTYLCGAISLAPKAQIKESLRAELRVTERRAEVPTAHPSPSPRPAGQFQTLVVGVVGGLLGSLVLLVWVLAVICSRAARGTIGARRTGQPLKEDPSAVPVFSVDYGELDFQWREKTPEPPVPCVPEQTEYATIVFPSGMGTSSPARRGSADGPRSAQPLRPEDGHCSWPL

[5] = M231 cells, 500 nM, fresh medium without treatment from the 24th hour

Experimental for M231 tumor: Administration every other day (15 mg/kg) was started on day 10 of inoculation of M231 tumor in female nude mice at 6-8 weeks of age, and a volume of the tumor (tumor length: a and width: b, volume calculation formula: ½ab^2) of the mice and body weight change were continuously monitored. After two weeks of administration, 7 times in total, the mice were euthanized the next day after the last administration, tumor tissues were isolated, and the tumor tissues were subjected to protein electrophoresis and immunofluorescence detection.
In the above, after being isolated, the tumor tissues were paraffin-embedded and sectioned, followed by immunofluorescence staining, and immunofluorescence staining results of EGFR and apoptotic core signal cleaved caspase-3 were detected.

Molecule: NTZ-LNP2: NTZ-PEG-DMG with HSPC + cholesterol + DOTAP lipid nanoparticle
EGFR protein expression (protein electrophoresis) (EGFR [1]; M231 cells, 24 h, concentration not given): can effectively degrade the target protein EGFR

AV45 autofluorescence in cells (cell internalization) (β-amyloid 1-42 oligomer): very weak
Molecule: CNc1ccc(/C=C/c2ccc(OCCOCCOCCF)nc2)cc1 [AV45, AV-45]

Molecule: NTZ-NP: PLGA nanoparticle core, PEG-DSPE intermediate layer, NTZ antibodies at periphery
cell proliferation (CCK8 cell viability) (HepG2 cells): significantly inhibited
EGFR in brain tumor (immunohistochemistry) (human glioma in situ): stronger than the ANG/NTZ-NP group
proliferation marker PCNA in brain tumor (immunohistochemistry) (human glioma in situ): stronger than the ANG/NTZ-NP group
green fluorescence signal of EGFP-labeled fused EGFR (EGFP-labeled fused EGFR): gradually decreases over time
EGFR protein expression level in isolated tumor tissues (protein electrophoresis) (M231 tumor; 15 mg/kg every other day, 7 times, five mice, p<0.05): significantly down-regulated
tumor volume proliferation (M231 tumor; 15 mg/kg every other day, 7 times, versus PBS, equal molar NTZ antibody and antibody-free nanoparticle groups): obviously inhibited
EGFR signal in tumor tissues (immunofluorescence staining) (M231 tumor; after treatment completed): EGFR signal is reduced
apoptotic signal cleaved caspase-3 in tumor tissues (immunofluorescence staining) (M231 tumor; after treatment completed): apoptotic signal rises
particle size (dynamic light scattering) [2]: about 150 nm
EGFR expression (protein electrophoresis) (EGFR [1]; HeLa cells, 500 nM, 24 h): obvious decreases in EGFR expression
EGFR protein level / expression (protein electrophoresis) (EGFR [1]; M231 cells, 500 nM, 24 h): obvious decreases in EGFR expression
EGFR gradually recovered after (EGFR [1]; [5]): > 72 h
optimal degradation time for a single treatment (EGFR [1]; [5]): 24 to 48 h
concentration at which EGFR is effectively degraded (as low as) (EGFR [1]; M231 cells, 24 h): 10 nM
EGFR expression (protein electrophoresis) (EGFR [1]; U87 cells, 500 nM, 24 h): obvious decreases in EGFR expression
blood parameters BUN, UA, CR, ALB, ALP, ALT, AST [3]: no obvious abnormality
EGFR expression on cell surfaces (immunofluorescence) (EGFR [4]): remarkably decreased

Molecule: ANG/NTZ-NP: NTZ-PEG-DSPE plus 20% Angiopep2-PEG-DSPE self-assembled with PLGA
EGFR in brain tumor (immunohistochemistry) (human glioma in situ): solvent PBS control group and the NTZ-NP group are stronger than the ANG/NTZ-NP group
proliferation marker PCNA in brain tumor (immunohistochemistry) (human glioma in situ): solvent PBS control group and the NTZ-NP group are stronger than the ANG/NTZ-NP group

Molecule: NTZ-PEGlipo: NTZ antibody coupled to NHS-PEG liposomes (HSPC + cholesterol)
EGFR protein level / expression (protein electrophoresis) (EGFR [1]; M231 cells, 500 nM, 24 h): can effectively degrade the target protein EGFR

Molecule: NTZ-lipoP: NTZ-PEG-DSPE on HSPC/cholesterol lipid membrane wrapping PLGA nanoparticles
SIZE (DLS particle size) [2]: 257 ± 7.0

expression of PD-1 receptor protein (PD-1 receptor protein): obviously reduced
B1: CRLZ-NP: Camrelizumab (CRLZ), PEG-DSPE linker, PLGA nanoparticle (conjugate, chains of the INN, looked up)
VH: EVQLVESGGGLVQPGGSLRLSCAASGFTFSSYMMSWVRQAPGKGLEWVATISGGGANTYYPDSVKGRFTISRDNAKNSLYLQMNSLRAEDTAVYYCARQLYYFDYWGQGTTVTVSS
VL: DIQMTQSPSSLSASVGDRVTITCLASQTIGTWLTWYQQKPGKAPKLLIYTATSLADGVPSRFSGSGSGTDFTLTISSLQPEDFATYYCQQVYSIPWTFGGGTKVEIK
modifications: PEG-DSPE PLGA nanoparticle
